Data published in patent US20240327502A1 (Merck Sharp & Dohme, published 2024).

Key:
[1] = molecular target: T1, Processed stabilized hMPV PreF trimer (115BV) (human metapneumovirus, strain B2); assay: BLI, ratio to unprocessed PreF trimer
T1 construct: also called Processed hMPV PreF trimer; processed PreF

[2] = molecular target: T2, Unprocessed hMPV PreF trimer (human metapneumovirus, strain B2); assay: BLI, mAb on anti-human Fc sensor
T2 construct: also called Unprocessed hMPV WT PreF trimer; unprocessed hMPV PreF trimeric antigen

[3] = molecular target: T3, hMPV PostF trimer (human metapneumovirus, strain B2); assay: BLI, mAb on anti-human Fc sensor
T3 construct: also called MPV PostF (dPFv1)

[4] = molecular target: T1, Processed stabilized hMPV PreF trimer …; assay: BLI, mAb on anti-human Fc sensor

| Binder | processed/unprocessed PreF trimer binding ratio [1] | Octet binding response [2] [nm] | Octet binding response [3] [nm] | Octet binding response [4] [nm] |
| --- | --- | --- | --- | --- |
| M3A07 (antibody, V domains shown, IgG) VH: QVQLVQSGAEVQKPGASVKVSCKASGYTFTRHAIHWVRQAPGQRLEWIGWVHGGNENTKYSQKLQGRVTITRDTSASTAYMELNSLRYEDTAVYYCATAMPGAFNMWGQGTVVTVSS VL: DIQMTQSPSTLSASVGDRVTITCRASQSISSWVAWYQQKPGKAPKLLIYKAFSLETGVPSRFSGSGSGTEFTLTISSLQPDDCATYYCQQYGSFSEFTFGQGTKLEIK | 0.17 | 0.324 | -0.022 | 0.0536 |
| M1A11 (antibody, V domains shown, IgG; also called MIA11) VH: QLQLQESGPGLVKPSETLSLTCTVSGDSISSSSFYWGWIRQPPGKGLEWIATIYYTGSTEYNPSLKSRISISVDTSMNQFSLRLRSVTAADTAVYYCARQEGSSWSNWFDPWGQGTLVTVSS VL: DIQMTQSPSSLSASVGDRVTITCRASQSISTYLNWYQQKPGKAPKLLIYVASSLQSGVPSRFSGSGSGTDFTLTISSLQPEDFATYYCQQGYSIPWTFGHGTKVEIK | 0.15 | 0.342 | 0.0143 | 0.0515 |
| M3A04 (antibody, V domains shown, IgG) VH: QVQLVESGGGVVQPGRSLRLSCAASGLTFSTYVMHWVRQAPGKGLEWVAVISYDGTNEHYADSVKGRFTISRDNSKNTLYLQMNSLRPEDTAVYYCARGTADYDVWSGSAWGGFDYWGQGTLVTVSS VL: DIQMTQSPSSLSASVGDRVTITCRASQSISSYLNWYQQKPGKAPKLLMYTVSSLPSGVPSRFSGSGSGTDFTLTISSLQPEDFATYYCQQSYNIPYTFGQGTKLEIK | 0.23 | 0.373 | -0.0261 | 0.0846 |
| M2E01 (antibody, V domains shown, IgG) VH: QLQLQESGPGLVKPSETLSLTCTVSGGSISSSTYYWGWIRQPPGKGLEWIGTIYYSGSTDYNPSLKSRLTISVDTSKNQFSLRLRSVTAADTAVYYCARLVSPYDQFDYWGQGTLVTVSS VL: DIQMTQSPSSLSASVGDRVTITCRASQTITTYLSWYLQKPGKAPKLLIYAASSWQSGVPSRFSGSGSGTDFTLTISSLQPEDFATYYCQQSYSTPYTFGQGTKLEIK | 0.31 | 0.408 | -0.016 | 0.126 |
| M2E04 (antibody, V domains shown, IgG) VH: QVQLQESGPGLVKPSEILSLTCTVSRFSINSGYYWGWIRQPPGKGLEWIGCISHAGSIYSNPSLESRVTLSLDTSKNQFSLKLTSVIAADTATYYCAASSNWHNALEYWGQGTLVVVSS VL: QSVLTQPPSASGTPGQTVTISCSGSRSNMGINWVYWYQQLPGTAPKLVIYRNSQRPSGVPDRFSGSQSGTSASLAISGLRSEDEAVYYCAVWDDSLDGRLFGGGTKLTVL | 0.51 | 0.391 | 0.0702 | 0.199 |
| M2E05 (antibody, V domains shown, IgG) VH: QVQLQESGPGLVKPSEILSLTCTVSRYSINSGYYWGWIRQPPGKGLEWVGCVSHAGVTYYNPSLESRVAVSLDTSKNQFSLKMTSVSAADTAMYYCAASSNWHNALEYWGQGTLVAVSS VL: QSVLTQPPSASGTPGQSVTISCSGSSSNMGINWVYWYQQLPGTAPKLLIYRNSQRPSGVPDRFSGSQSGTSASLAISGLRSEDEGHYYCAVWDDVVSGRLFGGGTKLTVL | 0.54 | 0.426 | 0.0401 | 0.228 |
| M4B11 (antibody, V domains shown, IgG) VH: QVQLVQSGTEVQTPGASVKVSCKTSGYIFTGYFMHWVRQAPGQGFEWMGWVNPYSGATTYAQKFQGRVTMTRDTSISTVYMELSRLTSDDTAIYYCAKDTSNSGPDLLEHWGQGTLVIVSS VL: EIVLTQSPATLSLSPGERATLSCRASQSISNFLVWYQRKPGQAPRLLIFDVSKRATGIPTRFSGSGSGTDFTLTISSLEPEDFAVYYCQQRSNWPPGYTFGQGTKLEIK | 0.18 | 0.273 | 0.426 | 0.0489 |
| M2A06 (antibody, V domains shown, IgG) VH: QVQLVQSGAEVKKPGASVKISCKASGYSFSNYYIQWVRQAPGQGLEWLGIINPSGGSTDYAQKFEGRVSMTRDTSTNTVYMEMSSLRSEDTASYYCVRSLANGSGSPWGQGTLVIVSS VL: DIQMTQSPSTLSASVGDRVTITCRASQSISSRLAWYQQKPGKAPNLLLYDASRSESGVPSRFSGSGSGTEFTLTISSLQPDDVATYYCQHYSIYSRWTFGQGTKVEIK | 0.22 | 0.237 | -0.0352 | 0.052 |
| M2E08 (antibody, V domains shown, IgG) VH: EVQLVESGGDLVLPGGSLRLSCEASGFMFSSYAMNWVRQAPGKGLERVSGISGSGGNTYYADSVKGRFTISRDNSKNIVYLQMNSLRAEDTAVYYCAKDLGNDYFYYIDVWGKGTTVMVSS VL: QSVLTQPPSVSGAPGQRVTISCTGTNFNIGAGYDVQWYQQLPGAAPKLLIHGNTYRPSGVPDRFSGSKSGTSASLAITGLQAEDEADYYCQSYDSSLSMVFGGGTKLTVL | 0.22 | 0.349 | -0.0233 | 0.0781 |
| M2B10 (antibody, V domains shown, IgG) VH: QVQLVESGGGVVQPGRSLRLSCAASGFTFSNYPMHWVRQAPGKGLAWVALISYDGRTKYYADSVKGRFTISRDNSMNTVYLQMNSLRAEDTAVYYCAREGLEYLNYWGQGTLVTVSS VL: EIVLTQSPGTLSLSPGERATLSCRASQSISSNSLAWYQQKPGQAPRLLSYGTSNRATGIPDRFSGSGSGTDFTLTISRLEPEDFAVYYCQQYGSSPLTFGPGTKVDIK | 0.13 | 0.209 | -0.0646 | 0.0278 |
| M2C10 (antibody, V domains shown, IgG) VH: QVQLVESGGGVVQPGRSLRLSCAASGFTFNNYAMHWVRQAPGKGLEWVALISDDGSKKYFADALKGRFTIFRDNSKNTLYLQMNSLRAEDTAVYYCARDPTPLGEYYFDYWGQGTLVTVSS VL: DIQMTQSPSSLSASVGDRVTITCRASQTISGYLNWYQQKPGKAPNLLIYTASSLESGVPSRFSGSGSETDFTLTISSLQPEDFATYYCQQSYRMPLTFGGGTRVSLK | 0.25 | 0.382 | -0.0261 | 0.0939 |
| M4B05 (antibody, V domains shown, IgG) VH: QVQLVQSGPEVRKPGASVIISCKASGYSFISYYIHWVRQAPGQGLEWMGIINPSGGSTEYAQKYQGRLTITRDTSTTTVSMTLSSLRSDDTAVYFCAREQAVGAYDIWGQGTMVTVSS VL: EIVLTQSPGTLSLSPGERATLSCRAGQLINGNYLAWYQKKPGQAPSLLIYDVSRRAAGVPDRFTGSGSGTDFTLTISRLEPDDFAVYYCQHYGRSPSPTFGGGTKVEIK | 0.19 | 0.281 | -0.0395 | 0.0529 |
| M2E11L (antibody, V domains shown) VH: QVQLVQSGAIMKKPGSSVKVSCKASGGTFTNFAFSWVRQAPGQGLEWMGGIIPFVGPANYAPQFQGRVTITADESTTTAYMELNSLRSEDTAVYYCARVRGFGETAYFYHYYMDVWGKGTTVTVSS VL: QTVVTQEPSLSVSPGGTVTLTCGLSSGSVSTSHFPSWYQQIPGQPPRTLIYSTITRSSGVPDRFSGSILGNKATLTITGAQADDECDYYCVLYLGGGIPHWVFGGGTKLTVL | 0.49 | 0.332 | 0.0538 | 0.162 |
| M2F01 (antibody, V domains shown, IgG) VH: QVQLVQSGAEVKKPGASVKVSCKASEDTFTNYYMHWVRQAPGQGLEWMGIINPSGGSTDYAQKFQGRVTMTRDTSTSTVYMELSSLRSEDTAMYYCARQGRTAACDYWGQGTLVTVSS VL: DIQMTQSPSSVSASVGDRVTITCRASQGIRSWLAWYQQKPGKAPKLLIYAASTLQSGVPSRFSGSGSGTDFTLTISSLQPEDFATYYCQQSNSFSLFTFGPGTRVDIK | 0.22 | 0.335 | -0.0326 | 0.0736 |
| M4F8 (antibody, V domains shown, IgG) VH: QVQLVQSGPEVKKPGASVKISCKASEYTFTNHYLHWVRQAPGQGLEWLGIINPTGGSTYYAGDFQGRVTLTRDASTTTVYMELSSVKSEDTAIYYCARDRGMRYFDYWGQGTLVTVSS VL: QSVLTQPPSVSGAPGQRVSISCTGISSNIGATYDVHWYQQLPGTAPKLLIYGNNNRPSGVPDRFSGSKSGTSASLAITGLQAEDEAVYYCQSYDSVLSGSVIFGGGTILTVL | 0.22 | 0.271 | 0.0408 | 0.0584 |
| M2B09 (antibody, V domains shown, IgG) VH: QVQLVQSGPEVKGPGASVRVSCKANGYTFTSYGINWVRQTPGQGLQWMGWISVHTDDTKDVQQFQDRVTMTTDTSTSTVFMELRNLRFDDTAVYYCARDRTDISGRVRDAFDLWGQGTLVTVSS VL: SYVLTQPPSVSVAPGQTAKITCGGNNIGSKSVHWYRQKPGQAPVLVVYDDSDRPSGIPERFSGSNSGNTATLTISRVEAGDEADYYCHVWDSYSDPNYVFGSGTKVTVL | 0.03 | 0.302 | -0.0435 | 0.0092 |
| M2A03 (antibody, V domains shown, IgG) VH: QLQLQESGPGLVKPSETLSLTCSVSGGSISSSSNSWTWIRQPPGKGLEWIATIFYFGSTYYNPSLRSRVAISVDTSENQFSLKLTSVTAADTAVYFCARHILSSSGVSGWLDPWGQGTLVTVSS VL: SYELTQPPSVSVSPGQTASITCSGEKLGSKYAHWYQQKPGRSPVLVIYQDTKRPSGIPERFSGSNSGSTATLTISGTQAMDEADYYCQAWDSSSFVFGTGTTVTVL | 0.29 | 0.369 | 0.477 | 0.109 |
